# Reference: the nanobody polyreactivity screen of Harvey et al. (2022)
# Test: yeast display, Sf9 membrane polyspecificity reagent, FACS + sequencing; frameworks hold sequencing errors
# How it was run: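 Galactose induction of a Saccharomyces cerevisiae BJ5465 synthetic nanobody display library ran 36–48 hours. The cells were then stained for 1 hour at 4 °C with 10% biotinylated, detergent-solubilized Sf9 membrane reagent, pulled down on streptavidin microbeads and FACS-sorted into low and high (top ~1%) gates on expression and reagent-binding fluorescence. Labels for polyreactivity follow the gate of origin.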
row,Sequence,polyreactivity (PSR sort gate)
1,QVQLVESGGGLVQAGGSLRLSCAASGYIFYFYAMGWYRQAPGKERELVAAISSSGGSTRYADSVKGRFTISRDNAKNTVYLQMNSLKPEDTAVYYCAASHWSGAAWYYYWGQGTQVSVSS,high polyreactivity
2,QVQLVESGGGLVQAGGSLRLSCAASGRTLYRNAMGWYRQAPGKERELVAAISRSGGITYYADSVKGRFTISRDNAKNTVYLQMNSLKPEDTAVYYCAARYGRGVAPYGYWGQGTQVTVSS,high polyreactivity
3,QVHLVESVGGLVQAGGSLRLSCAASGSIFLRYGMGWYRQAPGKERELVASISSSGGSTYYADSVKGRFTISRDNAKNTVYLQMNSLKPEDTAVYYCAADVPGARVSYWTSSGWHYDYCGQGTQVTVSS,high polyreactivity
4,QVQLVESGGGLVQAGGSLRLSCAASGRIFLGYAMGRYRPARGKERELVAAISTSGGSTYYADSVKGRFTISRDNAKNTVYLQMNSLKPEDTAVYYCAARNVRTYVTGVDYDYWGQGTQVTVSS,high polyreactivity
5,QVQLVESGGGLVQAGGSLRLSCAASGITFKWNALGWYRQAPGKERELVAVISSDGRTYYADSVKWRFTISRDKAKNTVYLQMNSLKPEDTAVYYCNADRSVIHRGYIWQPGRNDYWGQGTQVTVSS,low polyreactivity
6,QVQLVESGGGLVQAGGSLRLSCAASGRTFRGYAMGWYRQAPGKERELVAGISRSGGSTYYADSVKGRFTISRDNAKNTVYLQMNSLKPEDTAVYYCNAVPIYYAWRRNKPFDYWGQGTQVTVSS,low polyreactivity
7,QVQLEESGGGLVQAGGSLRLSCAASGFTFTRNAMGWYRQAPGKERELVAAISRGGSTNYADSVQGRFRISSDNAKNTVYLQMNSLKPEDTAVYYCAKVRTRATPGVDYYYWGQGTQVTVSS,high polyreactivity
8,QVQLVESGGGLVQAGGSLRLRCAASGIIFEYYAMGLYRQAPGKERELVAAITRGGTTYYADSVKGRFTISRDNAKNTVYLQMNSLKPEDTAVYYCNADSVAYGDEYDFWGQGTQVTVSS,low polyreactivity
9,QVQLVESGGGLVQAGGSLRLSCAASGSIFNSNGMGWYRQAPGKERELVAAITGGGSTNYADSVKGRFTISRDYAKNTVYLQMNSLKPEDTAVYYCAKRSYRTHTYDYWGQGTQVTVSS,low polyreactivity
10,QVQLVESGGGLVQAGGSLRLSCAASGNAMGWYRQAPGKERELVAAITRRVGSTYYADSVKGRFTISRDNAKNTVYLQMNSLKPEDTAVYYCAADNPSYNLWYGYWGQGTQVTVSS,low polyreactivity
11,QVQLVESGGGLVQAGGSLRLSCAASGYIFLPYAMGWYRQAPGKERELVAAITSVGRTYYADSVKGRFTISRDNAKNTVYLQMNSLKPEDTAVYYCAAPRGHGKYYSWGQGTQVTVSS,high polyreactivity
12,QVQLVDSGGGLVQAGGSLRLSCAASGFIFVRYAMGWYRQAPGKERELVAAISWSGARTYYADSVKGRFTISRDNAKNTVYLQFNSLKPEDSAVYYCAADSLDAGYYGYDYWGQGTQVGVSS,high polyreactivity
13,QVQLVESGGGLVQAGGSLRLSCAASGSTFGLYAMGWYIQAPGKERELVAAISSRGSRTYYADSVKGRFTISRDNAKNTVYLQLNSLIPEDTAVYYCNALYASSVRHKVTYDYWGQGTQVTVSS,high polyreactivity
14,QVQLVESGGGLVQAGGSLRLSCAASGGIFAVNVMGWYRQAPGKERELVAAITSTGSTYYADSVKGRFTISRDNAKNTVYLQMNSLKPEDTAVYYCASDYVYYDSYDDTVFGYEYWGQGTQVTVSS,high polyreactivity
15,QDQLVESGGGLVQAGGSLRLSCAASGGTFKFYAMGWYRQAPGKERELVAAITSGGSTSYADSVKGRFTISRDNAKNTVYLQMNSLKPEDTAVYYCNADFYQRYGVFSSRRYYYWGQGTQVTVSS,high polyreactivity
16,QVQLVESGGGLVQAGGSLRLSCAASGSIYGDYAMGWYRQAPGKERELVAAISWRGVRTYYADSVKGRFTISRDNAKNTVYLQMNSLNPEDTAVYYCDAEYYFVNRGAWYDYWGQGTQVTVSS,high polyreactivity
17,QVQLVESGGGLVQAGGSLRLSCAASGSLFTSYAMGWYRQAPGKERELVAAIRESGGRTYYADSVKGRFTISRDNAKNTVYLQMNSLKPEDTAVYYCAADSRVGFGRLYGYWGQGTQVTVSS,high polyreactivity
18,QVQLVESGGGLVQAGGSLRLSCAASGTFYTNAMGWYRPAPGKERELVAAITSGGSTYYADSVKGRFTISRDNAKNTVYLQMNSLKPEDTAVYYCAADPVSHGYDIDYDYWGQGTQVTVSS,low polyreactivity
19,QVQLVESCGGLVQAGGSLRLSCAASGRTFGVYAMGWYRQAPGKERDLVAAINYSGGSTYYADSVKGRFTISRDNAKNTVYLQMNSLKPEDTAVYSCNKGPLISYAYRYYQPYDYWGQGTQVTVSS,low polyreactivity
20,QGHLVESGGGLVQAGGSRRLSCAASGRIFSPYALGWSRQGPGKERELVAAISSDDGITYYADSVKRRFTISRDNAKNTVYFQMNSLKPEDTAVYYCAADSGTRPAGDYWGQGTQVTVSS,low polyreactivity
21,QVQLVESGGCLVQAGGSLRLSCAASGFTFPNAMGWYIQAPGKERELDATISSSGGSTYYADSVKGRFTISRDNAKNTVYLQMNSLKPEDTAVFYCAARTRQYLIYRAYRYDYWGQGTQVTVSS,low polyreactivity
22,QVQLVESGGGLVQAGASLRLSCAASGSISKSYAMGWYRQAPGKERELVAAISWRGGSTYADSVKGRFTISRDNAKNTVYLQMNSLKPEDTAVYYCAAVPVHTGSLYWGFTTGYDYWGQGTQVTVSS,low polyreactivity

row,Sequence,polyreactivity (PSR sort gate)
1,QVQLVESGGGLVQAGGSLRLSCAASGRIFIAYAMGWYRQAPGKERELVAAITDDGGTNYADSVKGRFTISRDNAKNTVYLQMNSLKPEDTAVYYCAATYLIGYYYVWEYDYWGQGTQVTVSS,low polyreactivity
2,QEQLQESGGGLVQAGGSLRLSCAASGTITVLYKMGWFRQAPGKEREFVASINYGTSTYYADSVKGRFTVSRDSAKNTVYLQMNSLKPEDTAVYYCAAAYRWQDVYRYWGQGTQVTVSS,low polyreactivity
3,QVQLVESGGGLVQAGGSLRVSCAASGRTFYANVRGWYRQAPGKERELGAAIAASGGSTYYADSVKGRVTISRDNAKNTVYLQMNRLKPEDTAGYYCYKVVRWPGTYLRYVISDLDYWGQGSQVTVSS,low polyreactivity
4,QVQHVESGGGLVQAGGSLRLSCAASGSTFGRNAMGWYRQAPGKERELVAAINWSDGSTHYADSVKGRFTISRDNAKNTVYLQMNSLKPEDTAVYYCGADAWSWPVDYNYWGQGTQVTVSS,low polyreactivity
5,QVQLVESGGGLVQAGGSLRLSCASSGLIFQYYVKGWYRQAPGKERELVAAISARGGGTYYADSVKGRFTISRDNAKNTVYLQMISLKPEDTAVYYCAADPVYAGPGYDYWGQGTQVTVSS,high polyreactivity
6,QVQLVESGGGLVQAGGSLRLSCAASGFTLGFNAMGWYRQAPGKERELVATISSSGGSTHYADSVKGRFTISRDNAKNTVYLQMNSLKPEDTAVYYCARDDSDRIWLEQSGYWGQGTQVTVSS,low polyreactivity
7,QVQLVESGGGLVQAGGSLRLSCAASGITFYRYVMGWYRQAPGKERELVAAITTGDSTYYADSVKGRFTISRDNAKNTVYLQMNSLKPEDTAVYFCAAVYYTALANYDYWGQGTQVTVSS,low polyreactivity
8,QVQLVESGGGLVQAGGRLPLSCAASGSTIYINAMGWYRQPPGKQRELVAPISYSGGSSYFADSVKGRFTISRDYAKNTVYFQKNSLIPEDTRVYYCYARGLQSFYPGYWFRGDFWGQGTQVTVSS,high polyreactivity
9,QVQLVESGGGLVQAGGRLRLSCAASGSIFFHYAMGWYRQAPGKERERVAAITWDGGSTYYADSVKGRFTISRDNAKNTVYLQMNSLKPEDTAVYYCNADQDLSTDEDEYWGQGTQVTVLS,low polyreactivity
10,QVQLVESGGGLVQAGGSLRLSCAACGRTFQSNAMGWYRQAPGKERELVARITRRGGITYYADSVKGRFTISRDNAKNTVYLQMNSLKPEDTAVYYCNRYLYDSYRWAALQRTGYNSWGQGTQVTVSS,high polyreactivity
11,QVQLVESGGGLVQAGGSLRLSCAASGRTFTVNAMGWYRQAPGKEREFVATISYRGGSTYADSVKGRFTISRDNAKNNVYLQMNSLKPEDTAVYYCAARSFWPYYGGDYDYWGQGNQVTVSS,high polyreactivity
12,QVQLQESGGGLVQAGGSLRLSCAASCTISQEDWMGWYRQAPGKELEFVAAIGLGSNTNYADSLKGRFTISRDNAKNTVYLQMNSLKPEDTAVYYCAVSVWQYSDHVYRGQGTQVTVSS,low polyreactivity
13,QVQLVESGGGLVQAGGSLRLSCAASGRIFVVYAMGGYRQAPGKERDLVASISRGGRTYYADSVKGRFTISRDNAKNTVYLQMNSLKPEDTAVYYCAVVVYLKNRDLFDYWGQGTQVTVSS,low polyreactivity
14,QVQLVESGSGLVQAGGSLRLSCAHSGFTVSYYVMGWYRQAPGKERELVAAISWSGGSTYYADSVKGRFTISLDNAKNTVYLQMNSLKPEDTAFYYCNADDWRDDYEYWGQGTQVTVSS,high polyreactivity
15,QVHLVESGGGLVQAGGSLRLSCAASGRTFYSYTMAWYRQAPGKERELVAAINRGGSTYYADSVKGRFTISRDKAKNTVYLQMNSLKEEDTAVYYFAVGYAHSSNRRYYYQKTHGYWGQGTQVTVSS,low polyreactivity
16,QVQLVESGGGLVQAGGSLRLSSAASGITFGRNTMGWYRQAPGKEREFVAAIDSGGNTYADSVQGRFTISRDNAKNTVYLQMNSLKPEDTAVYYCAVAGGEFSSYGYLGQGTQVTVSS,low polyreactivity
17,QVQLVETGGGIVQAGGSLRLSCASSGRTFNKYAMGRYRKAPGKERELVAAINYSGGRTDYADSVKGRFTISRDNAKNTVYLQMNSLKPDDTAVYYCAASPTFFVWQGYNYWGQGTQVTVSS,low polyreactivity
18,QVQLVESGGGLVQAGGSLRLSCAASGLIRDGKVMGWYIQAPGKERELVAAINTSGGSTYYADSVKGRFTISRDNAKNTVYLQMNSLKPEDTAVYYCAARYPSDYDYWGQGTQVTVSS,low polyreactivity
19,QVQLVESGGGLVQAGGSLRLSCAASGIIFGSNTMGWYRQAPGTERELVAAITSSDGSTHYADSVKGRFTISRDNAKNTVYLQMNRLKPEDTAVYYCAARKVTYGHSYGYDYWGQGTQVTVSS,low polyreactivity
20,QVQLVESGGGLVQAGGSLRLSCAASGLTIWYYAMGWSRQAPGKEREFVAAITSRGGDTYYADSVKGRFTISRDNAKNTVYLQMNSLKPEDTAVYYCAVRPRYYGTYRYYYWGQGTQVTVSS,high polyreactivity
21,QVQLVESGGGLGQAGGRLRLSCAASGIYYNAMGWYRQAPGNERELVAAITTGDRTNYADSVKGRFTISRDNAKNTVYLQMNSLKPEDTAVYYCNAVVERLSSTARDFAYDYWGQGTQVTVSS,low polyreactivity
